For the assay, the target named is T1, CD20 protein on the surface of B-cells (Raji cells, a Burkitt's lymphoma cell line) (human, UniProt P11836 1-297).
T1 construct: also called CD20 antigen; B lymphocyte antigen CD20
T1 sequence: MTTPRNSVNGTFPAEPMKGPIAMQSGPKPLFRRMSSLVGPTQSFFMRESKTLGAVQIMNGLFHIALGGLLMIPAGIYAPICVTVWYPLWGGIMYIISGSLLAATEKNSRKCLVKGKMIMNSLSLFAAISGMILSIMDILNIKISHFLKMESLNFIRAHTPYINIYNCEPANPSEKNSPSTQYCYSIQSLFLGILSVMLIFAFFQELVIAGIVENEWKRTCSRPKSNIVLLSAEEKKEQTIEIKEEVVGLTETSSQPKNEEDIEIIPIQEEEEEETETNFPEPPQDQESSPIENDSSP
As to the kind of experiment: indirect immunofluorescence on Raji cells, flow cytometry. The method, then:
Binding affinity of an antibody to its target antigen can be an indicator of antibody efficacy. An indirect immunofluorescence cell-based binding assay was conducted to determine the dissociation constant (KD) between select CD20-binding proteins of the invention and the targeted antigen (CD20 protein on the surface of B-Cells). […] Because of this, the raw data was fitted to the following equation: […]

Positions count from the first letter of the chain named. Names and notes keep the numbering of the source.

The source of these data is patent US20150239977A1 (MIT, published 2015).

B1: CD20-binding protein with M1/M2/M3/M4/M7 modifications (V3Q, A9S, I10S, V59S, L153D in the rituximab light chain) (antibody, human IgG1, kappa, V domains shown)
VH: QVQLQQPGAELVKPGASVKMSCKASGYTFTSYNMHWVKQTPGRGLEWIGAIYPGNGDTSYNQKFKGKATLTADKSSSTAYMQLSSLTSEDSAVYYCARSTYYGGDWYFNVWGAGTTVTVSA
VL: QIQLSQSPSSLSASPGEKVTMTCRASSSVSYIHWFQQKPGSSPKPWIYATSNLASGVPSRFSGSGSGTSYSLTISRVEAEDAATYYCQQWTSNPPTFGGGTKLEIKR
notes: Heavy chain unmodified; whole IgG as for the wild type; also called M1/2/3/4/7
As to B1, the binding result is on record as “binds”.

B2: CD20-binding protein with the M9 modification (Y101S in the rituximab Fab heavy chain, in the CDR) (antibody, human IgG1, kappa, V domains shown)
VH: B1 VH with Y101S
VL: B1 VL with Q3V, S9A, S10I, S59V
notes: Whole IgG as for the wild type; also called M9 (Y101S); CDR mutation
With B2, the binding result was “no binding”.
